This note sets out measurements from paper PMC2773007.

This test concerns the target Dvl2 PRR2 mutant (Δ370–376), FLAG-tagged (human) (UniProt O14641).
UniProt O14641, sequence (O14641 other isoform, or with tags, fused parts or gaps mutant): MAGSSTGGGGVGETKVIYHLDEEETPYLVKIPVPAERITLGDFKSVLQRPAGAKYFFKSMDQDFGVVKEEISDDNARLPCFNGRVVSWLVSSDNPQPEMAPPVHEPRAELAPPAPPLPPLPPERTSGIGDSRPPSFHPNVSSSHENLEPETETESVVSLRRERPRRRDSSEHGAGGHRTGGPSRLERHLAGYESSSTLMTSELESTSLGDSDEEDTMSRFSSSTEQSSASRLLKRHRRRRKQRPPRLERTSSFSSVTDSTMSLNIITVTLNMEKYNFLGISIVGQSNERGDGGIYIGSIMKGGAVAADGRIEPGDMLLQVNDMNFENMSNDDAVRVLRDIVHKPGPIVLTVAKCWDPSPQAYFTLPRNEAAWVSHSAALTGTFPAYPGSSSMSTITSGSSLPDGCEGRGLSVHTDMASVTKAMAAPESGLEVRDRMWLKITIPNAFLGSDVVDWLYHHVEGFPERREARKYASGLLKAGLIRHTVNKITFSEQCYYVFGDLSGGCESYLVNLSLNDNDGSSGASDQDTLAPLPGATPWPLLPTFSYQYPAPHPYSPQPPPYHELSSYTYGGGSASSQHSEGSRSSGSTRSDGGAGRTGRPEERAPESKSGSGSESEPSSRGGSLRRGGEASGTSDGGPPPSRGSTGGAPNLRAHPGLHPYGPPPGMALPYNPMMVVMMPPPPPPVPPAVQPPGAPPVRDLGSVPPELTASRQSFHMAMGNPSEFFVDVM

Consider “HA-tagged Grb2 (human growth factor receptor-bound-2) (from UniProt P62993 1-217) (natural protein)”, for which the sTF LEF/TCF luciferase reporter in HEK293 cells, co-expression of the Dvl2 mutant and Grb2 amounted to 60 % decrease.
